Here are results for two molecules from PMC3206076, “Structural, Stability, Dynamic and Binding Properties of the ALS-Causing T46I Mutant of the hVAPB MSP Domain as Revealed by NMR and MD Simulations” (PLoS ONE, 2011).

The target in assay [1] is Nir2 peptide FFAT motif (Homo sapiens) (UniProt O00562). Put plainly: ITC. The conditions noted are these: cited from earlier work.
The target in assay [2] is T1, wild-type (WT) hVAPB MSP domain (residues 1–125) (human, UniProt O95292 1-125).
T1 construct: human VAPB (vesicle-associated membrane protein-associated protein B), MSP domain, residues 1-125; 15N-labelled for the HSQC titrations in which its own spectrum was observed; also called WT-MSP domain; WT-MSP
The experiment in a line: NMR titration; 1H-15N HSQC of 15N-labeled WT-/T46I-MSP (100 µM) without or with unlabeled Nir2 peptide or EphA4 at molar ratios 1:0.5 to 1:8; 10 mM phosphate buffer, pH 6.8, 25°C. As to conditions: both partners purified.

For assay [3], the target named is T2, T46I mutant of the hVAPB MSP domain (human, UniProt O95292 1-125, T46I).
T2 construct: human VAPB MSP domain, residues 1-125, with the ALS-causing T46I mutation found in non-Brazilian kindred; Made by site-directed mutagenesis on the WT-MSP construct; PDB 3IKK is the structure of the WT parent; 15N-labelled for the HSQC titrations in which its own spectrum was observed; also called T46I-MSP domain; T46I-MSP
Put plainly: ITC; Microcal VP; peptide or EphA4 (300 µM) in the syringe, MSP protein (10 µM) in the cell; 50 mM Tris-HCl, 150 mM NaCl, 2 mM DTT, pH 7.5, 25°C; single binding site model. The conditions noted are these: both partners purified.
T2 sequence (O95292 1-125 T46I): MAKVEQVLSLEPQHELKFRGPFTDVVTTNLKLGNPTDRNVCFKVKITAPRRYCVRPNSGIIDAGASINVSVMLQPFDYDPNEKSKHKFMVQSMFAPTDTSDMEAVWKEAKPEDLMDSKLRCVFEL

The target of assay [4] is T46I mutant of the hVAPB MSP domain (human, UniProt O95292 1-125, T46I). The experiment in a line: ITC.
Target sequence in this assay (O95292 1-125 T46I): as above

T1 sequence (O95292 1-125): as the sequence (O95292 1-125 T46I) above, with I46T counted along it

Consider VAPB MSP (from UniProt O95292), for which the Kd in assay [1] is 650 nM.

B1: Nir2 peptide (EEEFFDAHE) (peptide)
peptide: EEEFFDAHE
notes: FFAT-motif peptide of the Nir2 protein; also called the peptide; source: synthetic peptide, bought: Genesis Biotech Inc., further purified by HPLC (reverse-phase C18)
On to B1, for which, in assay [2], the binding result is “binds”. The molecule also had a Kd in assay [3] of 2200 nM. This molecule displayed a Ka in assay [4] of 455000 M⁻¹.
